Assay: soluble fraction after stress (log2 fold change); higher = more stays soluble; pooled small domains, quantitative proteomics
Details: stress: pH 4
Summary of the method: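 Pooled custom libraries of small protein domains were subjected to pH 4 and measured by high-throughput quantitative proteomics. The log2 fold change in soluble amount per domain is reported, higher values meaning more remained soluble. This is used as a measure of aggregation propensity.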

| Sequence | soluble fraction (log2) |
| --- | --- |
| HMNEYSLVPDIYGMTYDDALSSLRNVGLDGRLALASTNEDLANADTRVVWQSKEAGSIIDKGSNVMFVID | -1.27 |
| HMVYFAKNIRHLRRLRGMSQELLAAELDITRARLGAYEESRSEPPLHLLIKISEFFKLPVDIIVKNDLTKS | -0.961 |
| HMSKKQEQALQSREKLLDAATALFAEHGYRDTSVQAIGEKAGVSRGSIFWHFGSKEGLLWAVVERAFTA | 0.346 |
| HMSQDPLETYYPQWSAAVKQSNPDAEIIRDTDGKYYVEGMTKNRVAVIYENPHLVRLVNATTNVHVE | 0.238 |
| HMNKKLEMKIEQLDLSVRLFNSLKRSGIYTVAQIIKLTEEDVMRFRSLGRKSFKELKEKLSEHGLEFE | -1.02 |
| HMSVSATQMDAFVRQLRARLSSADGLDDAARLVRQDLEPFLGRFSDETERDFAAAIEQVRGSIRPVEI | -1.73 |
| HMLSEKELLELLNRAKSNYNGITKKGIEAIALKYQGYSNVEIANLYHVKANHISAWISRARSRLKADY | -0.0621 |
| HMDYKSTLQELVQTVKKSVTYEVIDEEGPSHNKTFTSIVKIDGIVMGKGTAGSKKASEQEAARDALSKR | -0.0966 |
| HMSDRFLDQEGVALSTLRPSGTVVLDSGEHLDVVTRGEFIEQGERVKVIKAESTWYVVEQIN | -0.317 |
| HMVAADTVQVPDVTGKTVADAKQALISAGLQVGTVTAKDGKETANTILETSPAAGTSVDKGSKVNLVYSTG | -0.0646 |
| HMGELYGTDQYKDGDAQDTNIGKLLEVNIDGKWQVATTGTSRFEFAGVMDDNGHKLIMISVLPEAKTV | -0.647 |
| HMANPEFAGYINGKPYFGPTHQHRGVKMLGATHTRNPHPLVWDSIAESLANYDSRFRWSGGQIL | -0.203 |
| HMDFDVELTSAGTAKVKVIKAVREATGLGLKEAKDLVDNAPSIVKEGLDEAAANDLKAALEETGASVTL | 0.239 |
| HMPTERLSMRRIRELLRLRFEVGLSTRLIATALGISKGAVGDYLQRAQVAGLGWPLPENLNDAALERRLFP | ≥ 0.43 |
| HMGDVPESLVEKAGHSINAKIISAWGMTETGASTMTRPQDDPERAIYSDGVVLPLMDVRVVNDAGLA | -0.271 |
| HMQLTPAQHAILAHALEHSDGKIVWFPDNIKGGARKKVLDGLLNRALITTDGTDWFVAAEGYDAMGR | 0.063 |
| HMTSPRRLYALIVEHVGKDGVMHRSDVENVLAKVESEMDVDDLLDQLEINGTIIRRQDGTWQLL | -1.66 |
| HMTTIAQNISNYRTRANMTQQQVADKLSVSHHTVSKWELGINTPSVEDMQKLAQVFGVTITELVVD | -0.662 |
| HMEGDKEIPNVIGKSINDAKKILEQAGLKLGEVKKVNDSSVAKNVVLSTNPNAGTKVSAGDAVSITVAEG | 0.278 |
| HMSDNLTIVRAVYSGLSQRQAAATYHVSRNTVSLLLRHARNRGWLTLEDLAQLDNAAFSKSL | 0.354 |
| HMNPLLSAYLAEVERGLQGLTAGRRRLVLRELEAHLLDEAEARGLLTEEDMRALLMEKEPPERLAQEIAQ | -0.925 |
| HMTVVIKVQASQLESWKSSAGTEIKAKLIAVEDEKTYLFVTETGKTIRATAAQLDESSVSRARKLAGL | -0.514 |
| HMEMPGGVMRTLSTIAYNQPVLQSKLVKVRGPRAYEDVHILRDMGLVSARSVGQTVELSTTPKFAEQF | 0.102 |
| HMGPNSVPDLRGKSLRQAMKMVNDLELKAIFEGEGIVVGQVPAPGKPVPETKILKITLSLEPY | 0.0736 |
| HMDLKTNSQLINELEKKIKRPFDREIKNYLNKNLSTDRMISNNEIDKIILFYSGNNEIPNIEKISLILNDN | 0.0193 |
| HMNERTKIPLRKIEIGQAVYVDTLEKVGTVIDIQGKQFKVDLAGLPITVAARNLFYPLPQEAKP | -0.0254 |
| HMGADSFTGYTPIHKIDNPSDGINDGASYVVYFQKDGTDPTEFYKAVNANASTLAQLTSGTEYDLASSKKL | -0.722 |
| HMGETWYEILEISSDATTEEIRQAYFEQARQYHPDTNPGELAREWFYQVQEAYETLSDPDRRRQYDESIKG | -2.16 |

| Sequence | soluble fraction (log2) |
| --- | --- |
| HMQWGKVRRLPSGRYQASYVHKGTRYTAPETYTVQGRAHGWIESERRLIVTDTWTPPDTRPS | -0.202 |
| HMDSYADVLSDYRGKYKTNTISGLKGLRDKIREDMLAAADSLDFEKAALLRDEMNDLNKKIELKEKT | -0.486 |
| HMGKINEIVANNIAILRKKNRLSLEELGKLSGVSKSMLALIEKGDGNPTLGILWKIANGLGVPFDELTRRP | 0.0455 |
| HMAITVPEGATLSDAAVLLKQAGAVRSADAFLTRAKVFGGSTPIKAGEFVIPVQASNKDILAILQGGK | -0.193 |
| HMINKQPKDYEYFLEKWHFTQTEKHQLHNLILKLNIRYPNKDFLKITENLDNGKLVLKKLEERLSKT | -0.7 |
| HMEDQLDSLKDIIYDYLENNELYYNDLQEFKKIIIENMEFIHPNLNHKLIDNNFFKLINFKLEYNF | -0.828 |
| HMQAPVDPIVLGKMGSSYGIRGWLRVFSSTEDAESIFDYQPWFIQKAGQWQQVQLESWKHHNQDMIIKLN | 0.179 |
| HMAPPIQQQVESLMNSFAKIGVTVPMLESRLQHAMSAVTANELVMLRKIGASIRDGFATVAEQFPA | 0.0598 |
| HMHPVEPDDPDQHILFQHLRGQDQVHIDALIRLSGWTADKVSSTLLFMELQGLVKQLPGMYYALE | -1.07 |
| HMEVPFRNAAIFKTRSGDYAIRASYDGVDLGIKPIEKSTARTYFQLTDVKDKESFLNMTARNQYESEIAGI | 0.153 |
| HMEIEEIDYGTFLQMVEDGVVEKIELTDTQIFLTSTVDNDDKVYTTGVMPDQDLTNRLIEAGVVNFGKVV | -0.956 |
| HMQTKMVYSDLVNSIKSEQVSSMLVSGNTVTVTLTNGDKAKVKIPSLDTLQADVGKEMNDQMDKGTLKQE | -0.123 |
| HMIIVMRKGATEAQVNDIVERVRAAGFGVHLSQGEERTIIGAIGGDRAVLADLNLEAAPGVERVTPIS | -0.0491 |
| HMSVTRELMLVKVKVTPEQRAGVSAIVDIFRANIIDVGKESMIIELTGNKSKLEAFIDLLDGYEILELART | -0.865 |
| HMIDELNVGDIRFYLNRYGKEIQIEIIRIGDDGSVYARTMADNALFRVPEARLKNIGEKVPAEEVQRG | -0.348 |
| HMNLTEIGQRIRDRREELGLSQDRLAKLGGLPRVTINQLETGSIGDLGVSKLLNLLDLLGLTLDA | -0.614 |
| HMRGFTDFEHIEKEYLATIEKLNWPDGVTLPDKLEGEDTGTSFQVGYGDTRASNLWEYSWMK | -1.15 |
| HMEILNYVVSDGQSGIRIDRYLSDSNEDLSRSYIQKLLKEQKVTVQGTFVKANYKVQAGDVITVEVPDMA | 0.238 |
| HMRPTAWEQVSRHIDQHGSIGNTEVRKAMETENVLAASKQIKKWLEQGLLIILNPTAGTRARRYSKPNM | -0.0247 |
| HMEDGRLPPPGTVLRREYKGRAVFVRVLPKGFEFEGEVYRSLSAIAAKVTGSHWNGFRFFGLHE | 0.199 |
| HMATSNGEFVIPDGGLQFEELERSLLMQALKKSGGSQTGAARLLGLSRDTLRYRLEKFGIDAAAVRE | -0.149 |
| HMGDYERVPEYKGKLTSDLTMEDSQKFAFRFIWQNSDEDEGKIIDQDPPAGKSVAKGSEIVLYVSNG | -0.0695 |
| HMKKAIYPGSFDPLTLGHIDIIKRASGIVDELVVGVLNNSAKNSLFSLDERVSMIEEMTKDLPNVSVTSFD | -0.0125 |
| HMDRSIGDIIAELRDLSAEQVERVLAHQRETGVRFGEAAVALGYASKEDVLFALSQQFHYPYAPEE | -0.946 |
| HMNLSSETLSEMEARIGQMGVVELQDRRAYLLQEQEGTQNPSRLKEIADELSAIQKALVALV | -0.401 |
| HMVAMYLRVGISNGRRYLSIVQGYRDQVTKKVRHNTVKSLGYLDDLEKHYPDPIAHFKAVVEEMNKKQALE | 0.191 |
| HMKPSKTVYTTANLNLRNGASMSAAVYTSVSRGTALATTGRTTSGWTQITHRGRTLWASSKYLTTTTPP | 0.155 |
